# Article PMC11315935, “Multi-layered heterochromatin interaction as a switch for DIM2-mediated DNA methylation” (Nature Communications, 2024)
# Where a chain is given by its changes, count along the chain named. Names and notes keep the numbering of the source.
# B1: DIM2 (Defective-In-Methylation-2) N-terminal fragment, residues 1-1242, wild type (domain or fragment, Neurospora crassa, UniProt Q3Y3Z1 1-1242, looked up)
# chain: MDSPDRSHGGMFIDVPAETMGFQEDYLDMFASVLSQGLAKEGDYAHHQPLPAGKEECLEPIAVATTITPSPDDPQLQLQLELEQQFQTESGLNGVDPAPAPESEDEADLPDGFSDESPDDDFVVQRSKHITVDLPVSTLINPRSTFQRIDENDNLVPPPQSTPERVAVEDLLKAAKAAGKNKEDYIEFELHDFNFYVNYAYHPQEMRPIQLVATKVLHDKYYFDGVLKYGNTKHYVTGMQVLELPVGNYGASLHSVKGQIWVRSKHNAKKEIYYLLKKPAFEYQRYYQPFLWIADLGKHVVDYCTRMVERKREVTLGCFKSDFIQWASKAHGKSKAFQNWRAQHPSDDFRTSVAANIGYIWKEINGVAGAKRAAGDQLFRELMIVKPGQYFRQEVPPGPVVTEGDRTVAATIVTPYIKECFGHMILGKVLRLAGEDAEKEKEVKLAKRLKIENKNATKADTKDDMKNDTATESLPTPLRSLPVQVLEATPIESDIVSIVSSDLPPSENNPPPLTNGSVKPKAKANPKPKPSTQPLHAAHVKYLSQELVNKIKVGDVISTPRDDSSNTDTKWKPTDTDDHRWFGLVQRVHTAKTKSSGRGLNSKSFDVIWFYRPEDTPCCAMKYKWRNELFLSNHCTCQEGHHARVKGNEVLAVHPVDWFGTPESNKGEFFVRQLYESEQRRWITLQKDHLTCYHNQPPKPPTAPYKPGDTVLATLSPSDKFSDPYEVVEYFTQGEKETAFVRLRKLLRRRKVDRQDAPANELVYTEDLVDVRAERIVGKCIMRCFRPDERVPSPYDRGGTGNMFFITHRQDHGRCVPLDTLPPTLRQGFNPLGNLGKPKLRGMDLYCGGGNFGRGLEEGGVVEMRWANDIWDKAIHTYMANTPDPNKTNPFLGSVDDLLRLALEGKFSDNVPRPGEVDFIAAGSPCPGFSLLTQDKKVLNQVKNQSLVASFASFVDFYRPKYGVLENVSGIVQTFVNRKQDVLSQLFCALVGMGYQAQLILGDAWAHGAPQSRERVFLYFAAPGLPLPDPPLPSHSHYRVKNRNIGFLCNGESYVQRSFIPTAFKFVSAGEGTADLPKIGDGKPDACVRFPDHRLASGITPYIRAQYACIPTHPYGMNFIKAWNNGNGVMSKSDRDLFPSEGKTRTSDASVGWKRLNPKTLFPTVTTTSNPSDARMGPGLHWDEDRPYTVQEMRRAQGYLDEEVLVGRTTDQWKLVGNSVSRHMALAIGLKFREAWLGTLYD
# B2: DIM2 (residues 1-1242) L134A/L139A double mutant (domain or fragment, Neurospora crassa, UniProt Q3Y3Z1 1-1242, looked up)
# chain: B1 chain with L134A, L139A
# B3: DIM2 (residues 1-1242) R1104A mutant (domain or fragment, Neurospora crassa, UniProt Q3Y3Z1 1-1242, looked up)
# chain: B1 chain with R1104A
# B4: heterochromatin protein 1 (HP1), full length, residues 1-266 (natural protein, Neurospora crassa, UniProt Q1K612 1-266, looked up)
# chain: MPYDPSALSDEEAASSVELDTRSATSSSKKQSRDKKSVKYTIPEPEDFEDEEQNGDGADEGGEDDEEGDEEEEDVYVVEKILDHMLNDDNEPLFLVKWEGYEKKSDQTWEPEDTLIEGASERLKEYFTKIGGREKIFEASAAAQKIKKRGRPSSNSGTPQASSNKRSRKNGDHPLNSEEPQTAKNAAWKPPAGSWEEHIAQLDACEDEDTHKLMVYLTWKNGHKTQHTTDVIYKRCPQKMLQFYERHVRIIKRDPDSEDREGSVSQ
# notes: HP1, Neurospora crassa, UniProt Q1K612, residues 1-266, synthetic codon-optimised gene; Homodimer through its chromo shadow domains in the cryo-EM structures; only the CSDs (K189-I251, C191-I251) were traced; also called HP1-I; HP1-II; source: E. coli BL21 (DE3) RIL, purified (Ni-NTA, heparin, TEV cleavage, second Ni-NTA, SEC); not shown: His6, N-terminal, cleaved; MBP, N-terminal, cleaved
# Experiments:
# [1] = target: histone H3 peptide (residues 1-24) with H3K9me3, plus a C-terminal tryptophan (UniProt P68431 2-25, trimethyl-lysine at K9); assay: cell-based or functional assay
# [2] = target: B4; assay: cell-based or functional assay
# [3] = target: B1; assay: SEC; analytical SEC, 1.0 µM DIM2 and/or 2.5 µM HP1 on Superdex 200 increase 10/300 GL, 20 mM Tris-HCl pH 7.5, 100 mM NaCl, 5% glycerol, 5 mM DTT; fractions on SDS-PAGE; details: both partners purified
# [4] = target: B2; assay: as above; details: both partners purified
binder,measurement,setting,value
B1,"in vitro DNA methylation of a 36-mer duplex by DIM2 with HP1 and H3K9me3 peptide, against the DIM2-HP1 mixture",[1],~90 fold
B2,in vitro DNA methylation of (CTA)12/(TAG)12 duplex with HP1 and H3(1-24)K9me3 peptide; reduction against WT DIM2,[2],14 fold
B3,"in vitro DNA methylation: activity-stimulation effect of HP1, reduction against WT DIM2",[2],~8 fold
same,thermal shift assay: change of the Tm of DIM2 on co-incubation with HP1,[2],2.5 °C
B4,binding result,[3],binds
same,binding result,[4],binds
